Several values for one entry are separate records, joined by “and”; a condition that tells them apart may be missing. Equal values may be shown once.

The target in experiment [1] is T1, human CD112R antigen protein huCD112R-His (Acro Biosysterm, PVG-H52H4) (human, UniProt Q6DKI7 41-171).
T1 construct: purchased; also called human antigen protein; not shown: His tag
T1 sequence (looked up): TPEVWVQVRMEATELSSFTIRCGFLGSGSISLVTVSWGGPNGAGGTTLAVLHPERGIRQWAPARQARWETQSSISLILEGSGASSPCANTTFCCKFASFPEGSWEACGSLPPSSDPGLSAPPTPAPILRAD
Put plainly: ELISA, huCD112R-His coated on plate. Background: ELISA stands for enzyme-linked immunosorbent assay.

For experiment [2], the target named is T1, human CD112R antigen protein …. Description: SPR (Biacore X100), antibody captured on Protein A chip, huCD112R-His as analyte, 1:1 Langmuir.
Experiment [3] concerns the target T2, monkey antigen protein (monkey CD112R, Uniprot ID: A0A2K5WVV8) (monkey, UniProt A0A2K5WVV8 41-171).
T2 sequence: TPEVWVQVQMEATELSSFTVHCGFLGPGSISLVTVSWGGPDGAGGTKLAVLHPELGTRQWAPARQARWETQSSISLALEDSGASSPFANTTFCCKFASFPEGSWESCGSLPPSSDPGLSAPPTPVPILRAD
Put plainly: ELISA, monkey antigen protein (as Example 6.1).

In experiment [4] the target is T3, human CD112R on GS-J2C/CD112R effector cells (human, UniProt Q6DKI7 1-326).
T3 sequence (looked up): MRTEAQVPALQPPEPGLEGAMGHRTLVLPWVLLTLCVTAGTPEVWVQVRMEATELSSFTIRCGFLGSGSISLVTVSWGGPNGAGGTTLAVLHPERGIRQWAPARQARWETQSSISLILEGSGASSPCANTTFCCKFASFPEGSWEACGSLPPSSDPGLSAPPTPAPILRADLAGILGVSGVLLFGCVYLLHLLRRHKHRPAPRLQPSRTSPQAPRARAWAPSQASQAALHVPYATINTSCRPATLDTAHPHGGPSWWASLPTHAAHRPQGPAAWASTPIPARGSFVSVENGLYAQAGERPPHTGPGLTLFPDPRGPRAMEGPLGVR
Description: cell-based or functional assay.

B1: C124 (antibody, human IgG1, kappa, V domains shown)
VH: EVQLVESGGGLVKPGGSLKLSCAASGFTFSSFAMSWVRQTPAKRLESVATINNGGINTYYPDTVKGRFTVSRDNAKNTLYLQMSSLRSEDTAMYYCARHDDFLYYAMDYWGQGTSVTVSS
VL: QIVLTQSPAIMSASPGEKVTMTCSASSSVSYMYWYQQKPGSSPRLLIYDTSNLASGVPVRFSGSGSGTSYSLTISRMEAEDAATYYCQQWTSYPLTFGAGTKLELKR
One may read the EC50 as the concentration giving half of the maximal effect. A word on the Kd: it is the constant that tells how readily two partners part at equilibrium. B1: the values for the EC50 in experiment [1] and in experiment [3] were 33 pM and 59 pM, respectively. Binding in experiment [2] was characterised by a dissociation constant (Kd) of 243 pM. Moreover, the “EC50 (Blocking effects of the antibodies, reporter gene method)” value in experiment [4] worked out at 0.015 µg/mL.

B2: C62 (antibody, human IgG1, kappa, V domains shown)
VH: EVMLVESGGGLVKPGGSLKLSCAASGFSFSSYSMSWVRQTPEKRLECVATIGGVGGNTYYPDSVKGRFSISRDNAKNTLYLQMSSLRSEDTALYYCARHEDYYYYAMDYWGQGTSVTVSS
VL: QIVLTQSPAIMSASPGEKVTMTCSANSTVSYIYWYQQKPGSSPRLLIYDTSNLASGVPVRFSGSGSGTSYYLTISRMEAEDAATYYCQQWSSFPFTFGSGTKLEIKR
B2: the values for the EC50 in experiment [1] and in experiment [3] were 32 pM and 43 pM, respectively. Moreover, the Kd in experiment [2] is 704 pM and 571 pM. The “EC50 (Blocking effects of the antibodies, reporter gene method)” value in experiment [4] is 0.032 µg/mL.

B3: C138 (antibody, human IgG1, kappa, V domains shown)
VH: EVQLVESGGGLVKPGGSLKLSCAASGFTFSSYAMSWVRQTPAKRLEWVATITSGDIRTYYPDTVKGRFTISRDNAKNTLYLQMRSLRSEDTAMYYCVGHDDFHFYAMDYWGQGTSVTVSS
VL: QIVLTQSPAIMSASPGEKVTMTCSASSSVSYLYWYQQKPGSSPRLLIYDTSNLASGVPVRFSGSGSGTSYSLTLSRMEAEDAATYYCQQWSSYPLTFGAGTKLELKR
With B3, the EC50 in experiment [1] is 39 pM; in experiment [3] it was 52 pM. The Kd in experiment [2] amounted to 550 pM. Also, in experiment [4], the “EC50 (Blocking effects of the antibodies, reporter gene method)” value was found to be 0.029 µg/mL.

B4: C55 (antibody, human IgG1, kappa, V domains shown)
VH: EVQLQQSGPELVKPGASVKISCKASGYTFTDYYMSWVKQSHGKSLEWIGDVNPNNGDTSYNQKFKGKATLTVDKSSSTAYMELRSLTSEDSAVYYCAASGLPYVLMDYWGQGTSVTVSS
VL: DIQMTQSPASLSASVGETVTITCRASENINSYLAWYQQKQGKSPQLLVYNTKTLTEDVPSRFSGSGSGTQFSLKINSLQPEDFGSYYCQHHYGTPLTFGGGTKLELKR
For the molecule B4, the EC50 in experiment [1] was found to be 56 pM; in experiment [3], 1290 pM. Also, the Kd in experiment [2] was 506 pM and 334 pM. Moreover, the “EC50 (Blocking effects of the antibodies, reporter gene method)” value in experiment [4] was determined as 0.052 µg/mL.

B5: C152 (antibody, human IgG1, kappa, V domains shown)
VH: QVQLQQSGTILARPGASVKMSCRASDYTFTDYWIQWIKQRPGQGLEWIGAIFPENGDTRYTQKFKGRATLTADKSSSTAYMQVNSLTSEDSAVYYCATFINYVDYWGQGTTLTVSS
VL: QIVLIQSPAIMSASPGEKVTMTCSASSSVNNIHWYQQKSGTSPKRWIYDTTKLTSGVPARFSGSGSGTSYSLTISSMEAEDAATYYCQQWNINPYTFGGGTKLEIKR
As for B5, the EC50 in experiment [1] is 82 pM; in experiment [3] it was 74 pM. Further, binding in experiment [2] was put at a Kd of 274 pM. Besides, the “EC50 (Blocking effects of the antibodies, reporter gene method)” value in experiment [4] is 0.082 µg/mL.

B6: C132 (antibody, human IgG1, kappa, V domains shown)
VH: QVQLQQSGAELMKPGSSVNLSCKATDYTFTDYWINWVKQRPGHGLEWIGEILPGSVTTNYNEKFRGKATFTADTSSNTAYMQLSSLTSEDSAVYFCARGSDYSYYAMDYWGQGTSVTVSS
VL: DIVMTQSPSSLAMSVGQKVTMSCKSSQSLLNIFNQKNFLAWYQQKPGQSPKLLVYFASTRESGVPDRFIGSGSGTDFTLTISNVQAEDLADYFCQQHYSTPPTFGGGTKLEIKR
In the case of B6, the EC50 in experiment [1] worked out at 38 pM; in experiment [3], 94 pM. This molecule also came in with a Kd in experiment [2] of 156 pM. Also, the “EC50 (Blocking effects of the antibodies, reporter gene method)” value in experiment [4] amounted to 0.024 µg/mL.

B7: C57 (antibody, human IgG1, kappa, V domains shown)
VH: EVQLQQSGPVLVKPGASVKMSCKASGYIFTDYYMHWVKQSHGKSLEWIGIINPYNGDTSYNQKFKDKATLTVDKSSSTAYMELNSLTSEDSAVYYCARDSSNVGNAMDYWGQGTSVTVSS
VL: DIQMTQTTSSLSASLGDRVTISCRASQDISNYLNWYLQKPDGTIKLLIYYSSRLHSGVPSRFSGSGSGTDYSLTISNLEQEDIATYFCQQGYTLPRTFGGGTKLEIIR
B7: the results for the EC50 in experiment [1] and in experiment [3] were 34 pM and 77 pM, respectively. Moreover, the Kd in experiment [2] is 130 pM and 219 pM. In addition, the “EC50 (Blocking effects of the antibodies, reporter gene method)” value in experiment [4] stood at 0.061 µg/mL.

These data come from patent publication EP4644419A1 (Hangzhou Zhongmeihuadong Pharmaceutical Co., Ltd., dated 2025).
